{
  "source": "patent US20120214741",
  "molecular_target": "VDAC of isolated rat mitochondria (liver, brain) (UniProt Q9Z2L0)",
  "sequence (Q9Z2L0 2-283)": "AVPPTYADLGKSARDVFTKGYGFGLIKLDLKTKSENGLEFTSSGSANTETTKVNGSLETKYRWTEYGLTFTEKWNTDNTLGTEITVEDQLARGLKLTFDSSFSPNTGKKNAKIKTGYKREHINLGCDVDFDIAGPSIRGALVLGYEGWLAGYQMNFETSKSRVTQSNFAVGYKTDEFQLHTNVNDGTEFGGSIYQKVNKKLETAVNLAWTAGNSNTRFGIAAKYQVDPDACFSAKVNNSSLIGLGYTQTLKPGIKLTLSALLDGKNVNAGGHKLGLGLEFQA",
  "data": [
    {"substance": "yeast HK", "values": [
      {"measurement": "PTP opening (swelling of energized mitochondria)", "result": "The failure of non-binding species of HK, such as yeast HK, or trypsin- or chymotrypsin-treated HK-I (FIG. 2D) to prevent PTP opening"}
    ]}
  ]
}
